Assay results published in article PMC4075491, “Crystallography based structure elucidation of the complex of C-terminal fragment of Aβ polypeptide of Alzheimer’s disease with phospholipase A2” (BMC Genomics, 2014).

Biological target: T1, phospholipase A2 (PLA2) from cobra venom (cobra, UniProt P60045 8-126)
T1 construct: source: purified to homogeneity from cobra venom
Assay: enzyme kinetic studies (competitive); kinetic studies; the peptide binds to PLA2 in a competitive manner; no conditions told
Details: both partners purified

T1 sequence (P60045 8-126): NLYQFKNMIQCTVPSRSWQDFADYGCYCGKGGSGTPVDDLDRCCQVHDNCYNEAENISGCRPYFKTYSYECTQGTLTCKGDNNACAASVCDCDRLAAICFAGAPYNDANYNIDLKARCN

B1: Aβ(36-42) C-terminal heptapeptide Val-Gly-Gly-Val-Val-Ile-Ala (peptide)
peptide: VGGVVIA
notes: C-terminal heptapeptide of the Aβ polypeptide of Alzheimer's disease, residues 36-42; numbers count on: the Aβ peptide; also called VGGVVIA; Aβ_(36-42) peptide
Ki: 520 nM
